Laboratory results as given in patent US7407939B2, “Protein kinase inhibitors comprising ATP mimetics conjugated to peptides or peptidomimetics” (CureGenics Ltd., priority 2001, dated 2008).
Where two headings read alike, the source gives them in different places. *1 amine or outer side, *2 acyl side, *3 side chain or, on linkers, in order; H or OH if unused. Where a SMILES comes first, the peptide text is derived from it. Where no end group is shown, it is not given here. Side-chain parts run from the residue outwards. [ ]: non-standard residue; d: D form. The star is where a group is joined. ξ: configuration not given here. X1 = 5‑aminoethylsulfonamide isoquinoline, O=S(=O)(NCCN*)c1cccc2cnccc12; Isoquinoline5sulfonyl = O=S(=O)(c1cccc2cnccc12)*; X3 = O=C(OC[C@H](Cc1ccccc1)N[*:1])[*:2]; Ethylenediamine = C(CN[*:2])N[*:1]; hLeu = CC(C)CC[C@H](N)C(=O)O; Nle = CCCC[C@H](N)C(=O)O; Orn = NCCC[C@H](N)C(=O)O; Dab = NCC[C@H](N)C(=O)O; Nva = CCC[C@H](N)C(=O)O; ξE = NC(CCC(=O)O)C(=O)O; Abu = CC[C@H](N)C(=O)O; Dap = NC[C@H](N)C(=O)O; βAla = NCCC(=O)O

Target: T1, PKB (Homo sapiens, UniProt P31749)
T1 construct: His; HA; made in house
T1 sequence (P31749 whole entry, species assumed): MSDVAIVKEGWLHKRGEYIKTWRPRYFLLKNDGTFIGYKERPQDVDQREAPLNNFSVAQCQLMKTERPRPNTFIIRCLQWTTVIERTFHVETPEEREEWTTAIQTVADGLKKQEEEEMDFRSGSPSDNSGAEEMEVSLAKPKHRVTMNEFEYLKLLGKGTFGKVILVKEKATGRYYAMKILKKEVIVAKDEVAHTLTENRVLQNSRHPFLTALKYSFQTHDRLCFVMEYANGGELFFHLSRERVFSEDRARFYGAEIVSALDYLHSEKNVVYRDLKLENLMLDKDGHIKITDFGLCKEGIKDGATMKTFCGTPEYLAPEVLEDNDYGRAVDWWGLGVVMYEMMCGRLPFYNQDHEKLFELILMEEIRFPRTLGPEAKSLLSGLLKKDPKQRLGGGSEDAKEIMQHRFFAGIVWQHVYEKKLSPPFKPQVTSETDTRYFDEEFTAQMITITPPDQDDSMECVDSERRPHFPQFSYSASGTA
Test: PKB in vitro kinase activity assay (soluble His-HA-PKB / SPA bead screening)
Assay type: biochemical
Conditions: for PKB-kinase (spa) Assay 1, % inhibition of kinase activity / PKB-kinase (spa) Assay 2, % inhibition of kinase activity: 1 μM compound concentration

[1] = Table 3, linear 7-mer peptides, read-out: Activity PKB
[2] = chimeric PTR compounds (peptide conjugated to isoquinoline small molecule), read-out: PKB IC50

PKB-kinase (spa) Assay 1, % inhibition of kinase activity | PKB-kinase (spa) Assay 2, % inhibition of kinase activity | further results | Compound
32% | 30% | – | 60020-65: Arg-Pro-Arg-Dap-Glu(bAla-5-aminoethylsulfonamide isoquinoline)-Dab-Phe (RPR[Dap]E([βAla-X1])[Dab]F)
52% | 63% | – | 60020-66: Arg-Pro-Arg-Dap-Glu(bAla-5-aminoethylsulfonamide isoquinoline)-Dab-Hol (RPR[Dap]E([βAla-X1])[Dab][hLeu])
36% | 57% | – | 60020-69: Arg-Pro-Arg-Dap-Glu(bAla-5-aminoethylsulfonamide isoquinoline)-Ala-Phe (RPR[Dap]E([βAla-X1])AF)
57% | 68% | – | 60020-70: Arg-Pro-Arg-Dap-Glu(bAla-5-aminoethylsulfonamide isoquinoline)-Ala-Hol (RPR[Dap]E([βAla-X1])A[hLeu])
32% | 46% | – | 60020-71: Arg-Pro-Arg-Dap-Glu(bAla-5-aminoethylsulfonamide isoquinoline)-Nva-Phe (RPR[Dap]E([βAla-X1])[Nva]F)
31% | 52% | – | 60020-72: Arg-Pro-Arg-Dap-Glu(bAla-5-aminoethylsulfonamide isoquinoline)-Nva-Hol (RPR[Dap]E([βAla-X1])[Nva][hLeu])
16% | 35% | – | 60020-73: Arg-Pro-Arg-Orn-Glu(bAla-5-aminoethylsulfonamide isoquinoline)-Dab-Phe (RPR[Orn]E([βAla-X1])[Dab]F)
33% | 41% | – | 60020-74: Arg-Pro-Arg-Orn-Glu(bAla-5-aminoethylsulfonamide isoquinoline)-Dab-Hol (RPR[Orn]E([βAla-X1])[Dab][hLeu])
23% | 35% | – | 60020-75: Arg-Pro-Arg-Orn-Glu(bAla-5-aminoethylsulfonamide isoquinoline)-Orn-Phe (RPR[Orn]E([βAla-X1])[Orn]F)
38% | 38% | – | 60020-76: Arg-Pro-Arg-Orn-Glu(bAla-5-aminoethylsulfonamide isoquinoline)-Orn-Hol (RPR[Orn]E([βAla-X1])[Orn][hLeu])
13% | 15% | – | 60020-77: Arg-Pro-Arg-Orn-Glu(bAla-5-aminoethylsulfonamide isoquinoline)-Ala-Phe (RPR[Orn]E([βAla-X1])AF)
21% | 24% | – | 60020-78: Arg-Pro-Arg-Orn-Glu(bAla-5-aminoethylsulfonamide isoquinoline)-Ala-Hol (RPR[Orn]E([βAla-X1])A[hLeu])
13% | 35% | – | 60020-80: Arg-Pro-Arg-Orn-Glu(bAla-5-aminoethylsulfonamide isoquinoline)-Nva-Hol (RPR[Orn]E([βAla-X1])[Nva][hLeu])
−17% | 42% | – | 60020-81: Arg-Pro-Arg-Abu-Glu(bAla-5-aminoethylsulfonamide isoquinoline)-Dab-Phe (RPR[Abu]E([βAla-X1])[Dab]F)
−9% | 56% | – | 60020-82: Arg-Pro-Arg-Abu-Glu(bAla-5-aminoethylsulfonamide isoquinoline)-Dab-Hol (RPR[Abu]E([βAla-X1])[Dab][hLeu])
−21% | 60% | – | 60020-83: Arg-Pro-Arg-Abu-Glu(bAla-5-aminoethylsulfonamide isoquinoline)-Orn-Phe (RPR[Abu]E([βAla-X1])[Orn]F)
10% | 51% | – | 60020-84: Arg-Pro-Arg-Abu-Glu(bAla-5-aminoethylsulfonamide isoquinoline)-Orn-Hol (RPR[Abu]E([βAla-X1])[Orn][hLeu])
−27% | −2% | – | 60020-85: Arg-Pro-Arg-Abu-Glu(bAla-5-aminoethylsulfonamide isoquinoline)-Ala-Phe (RPR[Abu]E([βAla-X1])AF)
−55% | −5% | – | 60020-86: Arg-Pro-Arg-Abu-Glu(bAla-5-aminoethylsulfonamide isoquinoline)-Ala-Hol (RPR[Abu]E([βAla-X1])A[hLeu])

PKB-kinase (spa) Assay 1, % inhibition of kinase activity | PKB-kinase (spa) Assay 2, % inhibition of kinase activity | further results | Compound
−50% | 5% | – | 60020-87: Arg-Pro-Arg-Abu-Glu(bAla-5-aminoethylsulfonamide isoquinoline)-Nva-Phe (RPR[Abu]E([βAla-X1])[Nva]F)
−50% | 31% | – | 60020-88: Arg-Pro-Arg-Abu-Glu(bAla-5-aminoethylsulfonamide isoquinoline)-Nva-Hol (RPR[Abu]E([βAla-X1])[Nva][hLeu])
8% | 48% | – | 60020-89: Arg-Pro-Arg-Nle-Glu(bAla-5-aminoethylsulfonamide isoquinoline)-Dab-Phe (RPR[Nle]E([βAla-X1])[Dab]F)
19% | 27% | – | 60020-90: Arg-Pro-Arg-Nle-Glu(bAla-5-aminoethylsulfonamide isoquinoline)-Dab-Hol (RPR[Nle]E([βAla-X1])[Dab][hLeu])
40% | 59% | – | 60020-92: Arg-Pro-Arg-Nle-Glu(bAla-5-aminoethylsulfonamide isoquinoline)-Orn-Hol (RPR[Nle]E([βAla-X1])[Orn][hLeu])
−12% | 58% | – | 60020-93: Arg-Pro-Arg-Nle-Glu(bAla-5-aminoethylsulfonamide isoquinoline)-Ala-Phe (RPR[Nle]E([βAla-X1])AF)
9% | 31% | – | 60020-94: Arg-Pro-Arg-Nle-Glu(bAla-5-aminoethylsulfonamide isoquinoline)-Ala-Hol (RPR[Nle]E([βAla-X1])A[hLeu])
0% | 54% | – | 60020-96: Arg-Pro-Arg-Nle-Glu(bAla-5-aminoethylsulfonamide isoquinoline)-Nva-Hol (RPR[Nle]E([βAla-X1])[Nva][hLeu])
– | – | IC50 [1]: 2.5 µM | N=C(N)NCCC[C@H](NC(=O)[C@@H]1CCCN1C(=O)[C@@H](N)CCCNC(=N)N)C(=O)N[C@@H](CCCN)C(=O)N[C@@H](CO)C(=O)N[C@@H](CO)C(=O)N[C@@H](Cc1ccccc1)C(N)=O [AR 60003-52, Arg-Pro-Arg-Orn-Ser-Ser-Phe] (H-RPR[Orn]SSF-NH2; N-terminus and C-terminus assumed)
– | – | inhibition at 1 µM (at 1 μM, Table 3, read-out: inhibition (PKB)): 70% | CCCC[C@H](NC(=O)[C@H](CO)NC(=O)[C@H](CO)NC(=O)[C@H](CCCC)NC(=O)[C@H](CCCNC(=N)N)NC(=O)[C@@H]1CCCN1C(=O)[C@@H](N)CCCNC(=N)N)C(N)=O [AR 60003-62, Arg-Pro-Arg-Nle-Ser-Ser-Nle] (H-RPR[Nle]SS[Nle]-NH2)
– | – | IC50 (Table 2, chimeric compounds, read-out: Activity PKB): 25 µM | C[C@@H](O)[C@H](NC(=O)[C@H](CCCNC(=N)N)NC(=O)[C@@H]1CCCN1C(=O)[C@@H](N)CCCNC(=N)N)C(=O)N[C@@H](CO)C(=O)NC(CCC(=O)NCCNS(=O)(=O)c1cccc2cnccc12)C(=O)N[C@@H](Cc1ccccc1)C(N)=O (stereo partly shown) [PTR 6014] (H-RPRTS[ξE]([Ethylenediamine-Isoquinoline5sulfonyl])F-NH2)
– | – | IC50 [2]: 4 µM | CC[C@H](NC(=O)[C@H](CO)NC(=O)[C@@H](NC(=O)[C@H](CCCNC(=N)N)NC(=O)[C@@H]1CCCN1C(=O)[C@@H](N)CCCNC(=N)N)[C@@H](C)O)C(=O)N[C@H](COC(=O)NCCNS(=O)(=O)c1cccc2cnccc12)Cc1ccccc1 [compound 6013] (H-RPRTS[Abu][X3]-{Ethylenediamine-Isoquinoline5sulfonyl})
– | – | IC50 [2]: 25 µM | C[C@@H](O)[C@H](NC(=O)[C@H](CCCNC(=N)N)NC(=O)[C@@H]1CCCN1C(=O)[C@@H](N)CCCNC(=N)N)C(=O)N[C@@H](CO)C(=O)N[C@@H](CCC(=O)NCCNS(=O)(=O)c1cccc2cnccc12)C(=O)N[C@@H](Cc1ccccc1)C(N)=O [compound 6014] (H-RPRTSE([Ethylenediamine-Isoquinoline5sulfonyl])F-NH2)
– | – | IC50 [2]: 25 µM | CCC[C@H](NC(=O)[C@H](CCCNC(=N)N)NC(=O)[C@@H]1CCCN1C(=O)[C@@H](N)CCCNC(=N)N)C(=O)N[C@@H](CCC(=O)NCCNS(=O)(=O)c1cccc2cnccc12)C(=O)N[C@@H](C)C(=O)N[C@@H](CCC(C)C)C(N)=O [compound 6150] (H-RPR[Nva]E([Ethylenediamine-Isoquinoline5sulfonyl])A[hLeu]-NH2; N-terminus assumed)
– | – | IC50 [1]: 2.5 µM | RPRMSSF-NH2 (C-terminus assumed) [AR 60003-50, Arg-Pro-Arg-Met-Ser-Ser-Phe]
– | – | IC50 [1]: 3 µM | RPRRSSF-NH2 (C-terminus assumed) [AR 60003-53, Arg-Pro-Arg-Arg-Ser-Ser-Phe]
– | – | Activity PKB (Table 3, linear 7-mer peptides): Not active | RPRRSSR [AR 60003-64, Arg-Pro-Arg-Arg-Ser-Ser-Arg]
– | – | Activity PKB (Table 3, linear 7-mer peptides): Not active | RPRTSDF [TY 60002-18, Arg-Pro-Arg-Thr-Ser-Asp-Phe]
